Assays:
Assay in all cases: ELISA, coated CR6261, P. pastoris medium
Details in all cases: remark: other sources report otherwise
10F9 = target: 10F9
11F4 = target: 11F4
2C4 = target: 2C4
35H3 = target: 35H3
36D6 = target: 36D6
36E4 = target: 36E4
48B10 = target: 48B10
51G10 = target: 51G10
55G7 = target: 55G7
55H2 = target: 55H2
58A5 = target: 58A5
63C3 = target: 63C3
6A1 = target: 6A1
71C4 = target: 71C4
74D7 = target: 74D7
7A7 = target: 7A7
7B6 = target: 7B6
81F11 = target: 81F11
87H5 = target: 87H5
89F11 = target: 89F11
96A7 = target: 96A7

B1: CR6261 (antibody, V domains shown)
VH: EVQLVESGAEVKKPGSSVKVSCKASGGPFRSYAISWVRQAPGQGPEWMGGIIPIFGTTKYAPKFQGRVTITADDFAGTVYMELSSLRSEDTAMYYCAKHMGYQVRETMDVWGKGTTVTVSS
VL: QSVLTQPPSVSAAPGQKVTISCSGSSSNIGNDYVSWYQQLPGTAPKLLIYDNNKRPSGIPDRFSGSKSGTSATLGITGLQTGDEANYYCATWDRRPTAYVVFGGGTKLTVLG
CR6261 binding signal (10F9): 166000
CR6261 binding signal (11F4): 151000
CR6261 binding signal (2C4): 258000
CR6261 binding signal (35H3): 106000
CR6261 binding signal (36D6): 71300
CR6261 binding signal (36E4): 196000
CR6261 binding signal (48B10): 103000
CR6261 binding signal (51G10): 215000
CR6261 binding signal (55G7): 616000
CR6261 binding signal (55H2): 58100
CR6261 binding signal (58A5): 90700
CR6261 binding signal (63C3): 188000
CR6261 binding signal (6A1): 300000
CR6261 binding signal (71C4): 1.35e+06
CR6261 binding signal (74D7): 359000
CR6261 binding signal (7A7): 988000
CR6261 binding signal (7B6): 60400
CR6261 binding signal (81F11): 318000
CR6261 binding signal (87H5): 78100
CR6261 binding signal (89F11): 84800
CR6261 binding signal (96A7): 83300
